Test results published in patent US20090075925A1, “Methods and Compositions Related to APOBEC-1 Expression” (priority 2006, published 2009).

What was measured:
ACF/APOBEC-1 complexes = assay: co-immunoprecipitation of HA-tagged APOBEC-1 with ACF from McArdle nuclear extracts; format: biochemical, rat; conditions: nuclear extracts treated with CIAP
Protocol: Nuclear extracts were immunoprecipitated with ACF CT antibody and processed as described in FIG. 1. For CIAP treatment extracts were adjusted to 5 mM MgCl2, 3 mM CaCl2, 0.1 mM ZnCl2 and 25% glycerol and then incubated with 5U CIAP for 1 hour at 30° C. Control extracts were treated similarly but lacked phosphatase. The ratios of APOBEC-1:ACF were determined by scanning densitometry and quantitation using ImageJ Software. HC, position of 1g heavy chain. (n=4, standard deviation+/−0.2). […] In vitro editing activity was determined using the poisoned-primer extension assay. The percent editing was quantified by PhoshorImager (Molecular Dynamics) scanning densitometry. Data shown is representative of 3 independent experiments. *Statistical significance was determined to be P≦0.01 by unpaired t-test relative to control. […] Quantitation of relative amounts of ACF bound was performed using PhoshorImager scanning densitometry. Data shown are representative of 4 independent experiments. *Statistical significance was determined to be P≦0.01 by unpaired t-test relative to control.
Given the selective recovery of APOBEC-1 with nuclear ACF (FIG. 1), the interaction between ACF and APOBEC-1 was explored in nuclear extracts was mediated by post-translational modifications such as protein phosphorylation.

apoB mRNA editing = assay: in vitro apoB mRNA editing activity of nuclear extract after phosphatase treatment; format: biochemical, rat
Protocol: (§1) In vitro editing reactions and RNA binding assays. In vitro editing reactions and quantitative poisoned-primer extension assays were carried out using 80 μg of extract proteins as previously described (Shah et al. (1993), Smith, H. C. (1998)). ApoB RNA binding assays were performed by subjecting nuclear extract (80 μg) to in vitro editosome assembly and ultraviolet crosslinking (Smith, H. C. (1998)).
As an interaction between ACF and APOBEC-1 is critical for editing activity (Metha et al. Mol Cell Biol 20:1846-54 (2000)) the effect of alkaline phosphatase treatment on in vitro editing activity of hepatocyte extracts was investigated.

apoB mRNA = assay: ultraviolet light cross-linking of ACF (p66) to apoB RNA in liver nuclear extract; format: binding, rat
Protocol: as §1
To further investigate the role of phosphorylation, rat liver nuclear extract was treated with CIAP and assayed for in vitro apoB RNA editing activity. […] Phosphorylation can play a role in the subcellular localization and/or stability of ACF. […] These yields were achieved by treatment of rat primary hepatocytes (40 T25 flasks) with 0.45% ethanol for four hours in the presence of 70 mCi of total inorganic ^32P followed by immunoprecipitation of ACF64/65 (FIG. 32). Two IPs were resolved by PAGE (FIG. 32, Coomassie) and ACF64/65 identified (western).

ACF = target: T1, ACF (Rattus norvegicus, UniProt Q923K9); assay: removal of 32P label from immunoprecipitated hepatic ACF; format: biochemical; conditions: in vivo labeled rat hepatic nuclear extract
T1 construct: from tissue; host or cells: rat liver nuclear extract (27S gradient fractions)
T1 sequence (Q923K9 1-586 isoform Q923K9-2): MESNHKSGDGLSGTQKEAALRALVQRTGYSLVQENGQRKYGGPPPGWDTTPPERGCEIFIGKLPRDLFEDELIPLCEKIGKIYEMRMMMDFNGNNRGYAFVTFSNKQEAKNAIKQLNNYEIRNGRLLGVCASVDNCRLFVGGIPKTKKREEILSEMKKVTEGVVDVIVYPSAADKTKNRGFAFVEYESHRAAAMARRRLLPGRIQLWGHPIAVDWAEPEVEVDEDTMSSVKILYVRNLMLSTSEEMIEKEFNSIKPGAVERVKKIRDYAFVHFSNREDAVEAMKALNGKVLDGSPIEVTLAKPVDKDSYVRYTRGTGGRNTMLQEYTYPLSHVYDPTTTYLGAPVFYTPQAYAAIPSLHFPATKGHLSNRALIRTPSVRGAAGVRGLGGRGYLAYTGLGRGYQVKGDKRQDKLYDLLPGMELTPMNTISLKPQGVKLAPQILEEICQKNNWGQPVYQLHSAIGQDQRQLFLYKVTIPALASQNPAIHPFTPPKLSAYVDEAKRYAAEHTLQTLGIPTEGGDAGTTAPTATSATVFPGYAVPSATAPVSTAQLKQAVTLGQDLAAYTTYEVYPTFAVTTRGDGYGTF
Protocol: ACF is a phosphoprotein. Previous studies using site-directed mutagenesis of APOBEC-1 and overexpression of protein kinase Co implicated phosphorylation of APOBEC-1 as a mechanism for activating apoB mRNA editing (Chen et al. (2001)). To evaluate whether endogenous ACF is phosphorylated in vivo, rats were radiolabeled for 4 hours via an intraperitoneal injection of orthophosphoric acid in HEPES-buffered saline. Following extensive digestion of hepatic nuclear extracts with DNase I and RNase T1 to remove radiolabeled nucleic acids, ACF was immunoprecipitated with the CT antibody, resolved by SDS-PAGE, transferred to nitrocellulose and analyzed by autoradiography as well as immunoblotting with ACF NT antibody (FIG. 3A). A single band was detected by autoradiography that super-imposed with ACF-specific immunoblot reactivity. Greater than 90% of the ^32P-label was removed by CIAP treatment (FIG. 3B), consistent with the post-translational phosphorylation of protein. […] The amino acid sequence of rat ACF was predicted contain 23 serine/threonine and 7 tyrosine high probability sites of phosphorylation (http://www.cbs.dtu.dk/services.NetPhos and http://expasy.org/tools/scanprosite). […] Nuclear ACF was detected as two predominant charge isoforms (FIG. 3B). […]

mooring sequence = conditions: read-out: Kd for the mooring sequence / apoB mRNA; cited from earlier work

B1: CIAP: Calf Intestinal Alkaline Phosphatase (protein, UniProt P19111 20-506, looked up)
Intestinal-type alkaline …: LVPVEEEDPAFWNRQAAQALDVAKKLQPIQTAAKNVILFLGDGMGVPTVTATRILKGQMNGKLGPETPLAMDQFPYVALSKTYNVDRQVPDSAGTATAYLCGVKGNYRTIGVSAAARYNQCKTTRGNEVTSVMNRAKKAGKSVGVVTTTRVQHASPAGAYAHTVNRNWYSDADLPADAQMNGCQDIAAQLVNNMDIDVILGGGRKYMFPVGTPDPEYPDDASVNGVRKRKQNLVQAWQAKHQGAQYVWNRTALLQAADDSSVTHLMGLFEPADMKYNVQQDHTKDPTLQEMTEVALRVVSRNPRGFYLFVEGGRIDHGHHDDKAYMALTEAGMFDNAIAKANELTSELDTLILVTADHSHVFSFGGYTLRGTSIFGLAPSKALDSKSYTSILYGNGPGYALGGGSRPDVNDSTSEDPSYQQQAAVPQASETHGGEDVAVFARGPQAHLVHGVEEETFVAHIMAFAGCVEPYTDCNLPAPTTATSIPD
- reduction in HA-tagged APOBEC-1 recovered with immunoprecipitated ACF (ACF/APOBEC-1 complexes): 3 fold
- inhibition of apoB mRNA editing activity relative to control extracts (apoB mRNA editing; CIAP-treated nuclear extract): 2.5 fold
- inhibition of in vitro editing activity compared to buffer-treated control extracts (apoB mRNA editing; rat liver nuclear extracts): > 50%
- ultraviolet light cross-linking of ACF to apoB mRNA (apoB mRNA; 1, 5 or 10 U): did not significantly increase ultraviolet light cross-linking of ACF to apoB mRNA
- increase in yield of cross-linked p66 compared to control (apoB mRNA; highest CIAP treatment): 40%
- 32P-label removed from ACF (ACF): Greater than 90%

B2: ACF: APOBEC-1 Complementation Factor (protein, UniProt Q923K9 1-594, looked up)
APOBEC1 complementation factor: MESNHKSGDGLSGTQKEAALRALVQRTGYSLVQENGQRKYGGPPPGWDTTPPERGCEIFIGKLPRDLFEDELIPLCEKIGKIYEMRMMMDFNGNNRGYAFVTFSNKQEAKNAIKQLNNYEIRNGRLLGVCASVDNCRLFVGGIPKTKKREEILSEMKKVTEGVVDVIVYPSAADKTKNRGFAFVEYESHRAAAMARRRLLPGRIQLWGHPIAVDWAEPEVEVDEDTMSSVKILYVRNLMLSTSEEMIEKEFNSIKPGAVERVKKIRDYAFVHFSNREDAVEAMKALNGKVLDGSPIEVTLAKPVDKDSYVRYTRGTGGRNTMLQEYTYPLSHVYDPTTTYLGAPVFYTPQAYAAIPSLHFPATKGHLSNRALIRTPSVREIYMNVPVGAAGVRGLGGRGYLAYTGLGRGYQVKGDKRQDKLYDLLPGMELTPMNTISLKPQGVKLAPQILEEICQKNNWGQPVYQLHSAIGQDQRQLFLYKVTIPALASQNPAIHPFTPPKLSAYVDEAKRYAAEHTLQTLGIPTEGGDAGTTAPTATSATVFPGYAVPSATAPVSTAQLKQAVTLGQDLAAYTTYEVYPTFAVTTRGDGYGTF
- Kd (mooring sequence): 8 nM
